Assay results from paper PMC6321125, “Characterization of a Carbonyl Reductase from Rhodococcus erythropolis WZ010 and Its Variant Y54F for Asymmetric Synthesis of (S)-N-Boc-3-Hydroxypiperidine” (Molecules, 2018).
Residue numbers refer to the chain shown, from its start. Names and notes keep the numbering of the source.

B1: ReCR (Rhodococcus erythropolis; G336R/K233S/K67R/N94S/Q110S) (protein)
chain: MKAIQYTRIGAEPELTEIPKPEPGPGEVLLEVTAAGVCHSDDFIMSLPEEQYTYGLPLTLGHEGAGRVAAVGEGVEGLDIGTNVVVYGPWGCGSCWHCSQGLENYCSRASELGINPPGLGAPGALAEFMIVDSPRHLVPIGDLDPVKTVPLTDAGLTPYHAIKRSLPKLRGGSYAVVIGTGGLGHVAIQLLRHLSAATVIALDVSADKLELATKVGAHEVVLSDKDAAENVRSITGSQGAALVLDFVGYQPTIDTAMAVAGVGSDVTIVGIGDGQAHAKVGFFQSPYEASVTVPYWGARNELIELIDLAHAGIFDIAVETFSLDNGAEAYRRLAARTLSGRAVVVPGL
B2: ReCR (Rhodococcus erythropolis; G336R/K233S/K67R/N94S/Q110S/Y54F) (protein)
chain: B1 chain with Y54F

What was measured:
Assay in all cases: purified protein
purified protein [1] = substrate: CC(C)O; settings: apparent, 0.4 mM NAD+, standard assay 50 mM CAPSO pH 10.0, 50 °C
purified protein [2] = substrate: CC(C)(C)OC(=O)N1CCCC(=O)C1; assay type: biochemical, Rhodococcus erythropolis; settings: apparent, 0.4 mM NADH, standard assay 50 mM PIPES pH 6.0, 60 °C
purified protein [3] = substrate: CC(C)=O; assay type: biochemical, Rhodococcus erythropolis; settings: apparent, 0.4 mM NADH, standard assay 50 mM PIPES pH 6.0, 60 °C
purified protein [4] = substrate: CCCCCCC(C)=O; assay type: biochemical, Rhodococcus erythropolis; settings: apparent, 0.4 mM NADH, standard assay 50 mM PIPES pH 6.0, 60 °C
purified protein [5] = substrate: CCCCCCC(C)O; assay type: biochemical, Rhodococcus erythropolis; settings: apparent, 0.4 mM NAD+, standard assay 50 mM CAPSO pH 10.0, 50 °C

Protein	Km (purified protein [1]) [µM]	Vmax (purified protein [1]) [µmol/min/mg]	kcat (purified protein [1]) [s⁻¹]	kcat/Km (purified protein [1]) [M⁻¹ s⁻¹]	Km (purified protein [2]) [µM]	Vmax (purified protein [2]) [µmol/min/mg]	kcat (purified protein [2]) [s⁻¹]	kcat/Km (purified protein [2]) [M⁻¹ s⁻¹]	Km (purified protein [3]) [µM]	Vmax (purified protein [3]) [µmol/min/mg]	kcat (purified protein [3]) [s⁻¹]	kcat/Km (purified protein [3]) [M⁻¹ s⁻¹]	Km (purified protein [4]) [µM]	Vmax (purified protein [4]) [µmol/min/mg]	kcat (purified protein [4]) [s⁻¹]	kcat/Km (purified protein [4]) [M⁻¹ s⁻¹]	Km (purified protein [5]) [µM]	Vmax (purified protein [5]) [µmol/min/mg]	kcat (purified protein [5]) [s⁻¹]	kcat/Km (purified protein [5]) [M⁻¹ s⁻¹]
B1	1460 ± 60	23.5	14.2	9740	1740 ± 80	104	62.6 ± 1.49	36000 ± 860	46060 ± 2620	66.3	40.1 ± 1.98	870 ± 40	3290 ± 50	236	142 ± 3.11	43300 ± 950	4940 ± 450	107	64.4 ± 1.66	13000 ± 340
B2	1030 ± 50	35.3	21.3	20700	1730 ± 50	141	85.1 ± 3.94	49200 ± 2280	37320 ± 560	90.5	54.7 ± 1.02	1470 ± 30	3110 ± 120	274	165 ± 4.58	53200 ± 1470	1370 ± 80	128	77.5 ± 1.88	56600 ± 1370
